Substitutions are numbered along the chain they refer to.
T1: BCMA_B14x Gly6_Pro23 (C21S) (human, UniProt Q02223)
T1 construct: limits and substitution as printed in the sample name
T1 yeast-displayed fusion (looked up): GQCSQNEYFDSLLHASIP

T2: full-length hBCMA-ECD displayed on yeast (Aga2-HA-(hBCMA)-MYC) (human, UniProt Q02223 1-54)
T2 construct: range 1-54; stands here as the molecule on which the mapped regions are counted; also called hBCMA ecto-domain (ECD); not shown: Aga2-HA N-terminal fusion partner of the pPNL6 yeast display vector; C-terminal MYC tag
T2 sequence (looked up): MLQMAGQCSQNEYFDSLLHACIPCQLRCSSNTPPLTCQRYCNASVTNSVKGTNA

T3: BCMA_B9x Met1_Asp15 (human, UniProt Q02223)
T3 construct: limits given in the sample name
T3 yeast-displayed fusion (looked up): MLQMAGQCSQNEYFD

T4: BCMA_B22x Arg27_Tyr40 (C37S) (human, UniProt Q02223)
T4 construct: limits and substitution as printed in the sample name
T4 yeast-displayed fusion (looked up): RCSSNTPPLTSQRY

T5: BCMA_B3x Ile22_Ala54 (human, UniProt Q02223)
T5 construct: limits given in the sample name
T5 yeast-displayed fusion (looked up): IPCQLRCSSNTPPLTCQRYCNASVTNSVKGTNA

T6: hBCMA-ECD-FC5VHH (human, UniProt Q02223 1-54, biotinylated in vivo ; biotinylated in vivo on the tag of the carrier part, which is not in the letters)
T6 construct: Made in HEK-293 cells, monomeric SEC fraction; The methods say about 500 RU captured on an SA chip; the results say immobilised on a CM5 chip; also called hBCMA-FC5; human BCMA-ECD; not shown: FC5 VHH carrier, any linker, and the His and biotinylation tags
T6 sequence: T2 sequence (looked up)

T7: BCMA_B4x Arg27_Ala54 (human, UniProt Q02223)
T7 construct: limits given in the sample name
T7 yeast-displayed fusion (looked up): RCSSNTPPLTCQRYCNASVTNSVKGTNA

T8: BCMA_B5x Gln38_Ala54 (human, UniProt Q02223)
T8 construct: limits given in the sample name
T8 yeast-displayed fusion (looked up): QRYCNASVTNSVKGTNA

T9: hBCMA fragment Gly6-Pro23 displayed on yeast (Aga2-HA-(hBCMA)-MYC) (human, UniProt Q02223 6-23)
T9 construct: range 6-23; not shown: Aga2-HA N-terminal fusion partner of the pPNL6 yeast display vector; C-terminal MYC tag
T9 chain (looked up): GQCSQNEYFDSLLHACIP

T10: BCMA_B19x Arg27_Ala43 (human, UniProt Q02223)
T10 construct: limits given in the sample name
T10 yeast-displayed fusion (looked up): RCSSNTPPLTCQRYCNA

T11: BCMA_B18x Ile22_Tyr40 (C37S) (human, UniProt Q02223)
T11 construct: limits and substitution as printed in the sample name
T11 yeast-displayed fusion (looked up): IPCQLRCSSNTPPLTSQRY

T12: BCMA_B15x Ile22_Ala43 (human, UniProt Q02223)
T12 construct: limits given in the sample name
T12 yeast-displayed fusion (looked up): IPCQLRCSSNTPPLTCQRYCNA

T13: hBCMA fragment Gly6-Tyr40 displayed on yeast (Aga2-HA-(hBCMA)-MYC) (human, UniProt Q02223 6-40)
T13 construct: range 6-40; not shown: Aga2-HA N-terminal fusion partner of the pPNL6 yeast display vector; C-terminal MYC tag
T13 chain (looked up): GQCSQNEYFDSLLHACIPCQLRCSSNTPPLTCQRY

T14: BCMA_B7x Met1_Tyr40 (human, UniProt Q02223)
T14 construct: limits given in the sample name
T14 yeast-displayed fusion (looked up): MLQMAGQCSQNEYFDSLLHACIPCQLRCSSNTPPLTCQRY

B1: hBCMA-H4 (VHH)
VHH: QVQLVESGGGLVQPGGSLRLSCAASGDSFGAYAMGWYRQAPGKQRELVAAISSAGNTFYRDSVKGRFTVSRNNAKNAMYLQMDRLKPEDTAVYQCNGAPWADEPVKVWNWGLGTQVTVSS
modifications: single biotin on the C-terminal AviTag
notes: also called VHH-H4; not shown: C-terminal His tag and AviTag biotinylation signal from pMRO vector
B2: hBCMA-H2 (VHH)
VHH: QVKAEESGGGLVRPGDSLRLTCTISGRTSNNFVMAWFRRTPGKEREYVATRVWSGSTPYYHDSVKGRFTISIDDDKNTAYLQMNSLKPEDTAVYYCAATKDIMSRSYDYWGLGTQVTVSS
modifications: single biotin on the C-terminal AviTag
notes: also called VHH-H2; not shown: C-terminal His tag and AviTag biotinylation signal from pMRO vector
B3: hBCMA-VcMRo8(VF7/VF8) (VHH)
VHH: QVQLVESGGGLVQPGGSLRLSCAASGTIFSRNALAWFRQAPGKQRELVAHITIGGTTVYKDSVKGRFTISRDNAKNTVYLQMDALKPEDTAVYYCNADPEGSWNWVRRGDYWGQGTQVTVS
modifications: single biotin on the C-terminal AviTag
notes: also called V8; hBCMA-V8; not shown: C-terminal His tag and AviTag biotinylation signal from pMRO vector
B4: hBCMA-VcMRo3 (V3) (VHH)
VHH: EVQLEQSGGGLVQTGDSLRLTCTIPGRASNHFVMAWFRRAPGKEREFVATRVWSGGSPYYSDSVKGRFAIAIDNAKNTAYLQMNSLKPEDTAVYYCAATKDIMSRSYDYWGLGTQVTVSS
modifications: single biotin on the C-terminal AviTag
notes: also called hBCMA-V3; not shown: C-terminal His tag and AviTag biotinylation signal from pMRO vector
B5: hBCMA-E7 (VHH)
VHH: B4 VHH with E1Q, E5V, Q6E, T21A, P25S, S29T, N30D, F47Y, S61L, S85N
modifications: single biotin on the C-terminal AviTag
notes: Llama VHH made in E. coli BL21(DE3), IMAC purified, monomeric SEC fraction used; also called VHH-E7; VHH # 1-B1; not shown: C-terminal His tag and AviTag biotinylation signal from pMRO vector
B6: hBCMA-A6 (VHH)
VHH: QVQLVESGGGLVQPGGSLRLSCVASGSIFDAYNMGWYRQAPGKQRELVAAISSAGTTFYRDSVKGRFTVSRNNAKNTMYLQMDRLRPEDTAVYDCNGAPWGDAPVKVEDWGQGTQVTVSS
modifications: single biotin on the C-terminal AviTag
notes: also called VHH-A6; not shown: C-terminal His tag and AviTag biotinylation signal from pMRO vector

Biological target: T1, BCMA_B14x Gly6_Pro23 (C21S)
Assay: yeast cell ELISA, sample BCMA_B14x Gly6_Pro23 (C21S)
Procedure: (§1) The YSD vector (pPNL6) was from The Pacific Northwest National Laboratory, USA. […] The HRP activity was assayed with substrate TMB (tetramethyl benzidine) according to the manufacture's conditions and read at OD₄₅₀.
(§2) The assays were performed as described in the Materials and Method, and OD₄₅₀ was measured. Note that OD₄₅₀ reads equal or less than 0.100 were scored as zero for clarity.

| Binder | binding result |
| --- | --- |
| B1 | no binding |
| B2 | no binding |
| B3 | no binding |
| B4 | no binding |
| B5 | no binding |
| B6 | no binding |

Biological target: T2, full-length hBCMA-ECD displayed on …
Assay: yeast cell ELISA, sample BCMA_B1x Met1_Ala54
Procedure: as §1, §2

| Binder | OD450 |
| --- | --- |
| B1 | 2.78 |
| B2 | 2.12 |
| B3 | 2.45 |
| B4 | 3.09 |
| B5 | 2.52 |
| B6 | 1.88 |

Biological target: T3, BCMA_B9x Met1_Asp15
Assay: yeast cell ELISA, sample BCMA_B9x Met1_Asp15
Procedure: as §1, §2

| Binder | binding result |
| --- | --- |
| B1 | no binding |
| B2 | no binding |
| B3 | no binding |
| B4 | no binding |
| B5 | no binding |
| B6 | no binding |

Biological target: T4, BCMA_B22x Arg27_Tyr40 (C37S)
Assay: yeast cell ELISA, sample BCMA_B22x Arg27_Tyr40 (C37S)
Procedure: as §1, §2

| Binder | binding result |
| --- | --- |
| B1 | no binding |
| B2 | no binding |
| B3 | no binding |
| B4 | no binding |
| B5 | no binding |
| B6 | no binding |

Biological target: T5, BCMA_B3x Ile22_Ala54
Assay: yeast cell ELISA, sample BCMA_B3x Ile22_Ala54
Procedure: as §1, §2

| Binder | binding result |
| --- | --- |
| B1 | no binding |
| B2 | no binding |
| B3 | no binding |
| B4 | no binding |
| B5 | no binding |
| B6 | no binding |

Biological target: T6, hBCMA-ECD-FC5VHH
Assay: SPR (Biacore T200), VHH 20-500 nM over BCMA-ECD surface, 25 C
Procedure: For surface Plasmon resonance, 15 selected VHHs were passed though size exclusion columns, Superdex 75 (GE Healthcare), respectively, in 10 mM HEPES, pH 7.4, containing 150 mM NaCl, 3 mM EDTA, monomeric sdAb fractions were collected and protein concentrations were determined by measuring absorbance at 280 nm (A280). Analysis were performed with Biacore T200 instrument (GE Healthcare). All measurements were carried out at 25° C. in 10 mM HEPES, pH 7.4, containing 150 mM NaCl, 3 mM EDTA and 0.005% surfactant P20 (GE Healthcare). Approximately 500 RUs of the recombinant monomeric BCMA-ECD (obtained after SEC purification of the BCMA-ECD-FC5VHH) were captured on SA sensor chip (GE Healthcare) at a flow rate of 5 uL/min. Various concentration of the monomeric VHHs (20-500 nM) were injected over BCMA-ECD surface, respectively using an SA surface as a reference at a flow rate of 40 μL/min. Surfaces were generated by washing with running buffer. Data were analysed with BIAevaluation 4.1 software.
The monomeric fraction of all 15 VHHs were used for SPR experiment where the human BCMA-ECD or mouse BCMA was immobilized onto the CM5 dextran chip and various VHH concentration (20-500 nM) were passed over the sensor chip.

| Binder | Kd | koff | kon |
| --- | --- | --- | --- |
| B1 | 0.379 nM | 0.000509 s⁻¹ | 1.34e+06 M⁻¹ s⁻¹ |
| B2 | 0.0801 nM | 0.000343 s⁻¹ | 4.28e+06 M⁻¹ s⁻¹ |
| B3 | 0.0846 nM | 0.00125 s⁻¹ | 1.48e+07 M⁻¹ s⁻¹ |
| B4 | 0.564 nM | 0.000239 s⁻¹ | 424000 M⁻¹ s⁻¹ |
| B5 | 0.0462 nM | 0.000179 s⁻¹ | 3.88e+06 M⁻¹ s⁻¹ |
| B6 | 4.62 nM | 0.0109 s⁻¹ | 2.36e+06 M⁻¹ s⁻¹ |

Biological target: T7, BCMA_B4x Arg27_Ala54
Assay: yeast cell ELISA, sample BCMA_B4x Arg27_Ala54
Procedure: as §1, §2

| Binder | binding result |
| --- | --- |
| B1 | no binding |
| B2 | no binding |
| B3 | no binding |
| B4 | no binding |
| B5 | no binding |
| B6 | no binding |

Biological target: T8, BCMA_B5x Gln38_Ala54
Assay: yeast cell ELISA, sample BCMA_B5x Gln38_Ala54
Procedure: as §1, §2

| Binder | binding result |
| --- | --- |
| B1 | no binding |
| B2 | no binding |
| B3 | no binding |
| B4 | no binding |
| B5 | no binding |
| B6 | no binding |

Biological target: T9, hBCMA fragment Gly6-Pro23 displayed on …
Assay: yeast cell ELISA, sample BCMA_B12x Gly6_Pro23
Procedure: as §1, §2

| Binder | binding result | OD450 |
| --- | --- | --- |
| B1 | no binding | – |
| B2 | – | 2.82 |
| B3 | no binding | – |
| B4 | – | 2.08 |
| B5 | – | 2.39 |
| B6 | no binding | – |

Biological target: T10, BCMA_B19x Arg27_Ala43
Assay: yeast cell ELISA, sample BCMA_B19x Arg27_Ala43
Procedure: as §1, §2

| Binder | binding result |
| --- | --- |
| B1 | no binding |
| B2 | no binding |
| B3 | no binding |
| B4 | no binding |
| B5 | no binding |
| B6 | no binding |

Biological target: T11, BCMA_B18x Ile22_Tyr40 (C37S)
Assay: yeast cell ELISA, sample BCMA_B18x Ile22_Tyr40 (C37S)
Procedure: as §1, §2

| Binder | binding result |
| --- | --- |
| B1 | no binding |
| B2 | no binding |
| B3 | no binding |
| B4 | no binding |
| B5 | no binding |
| B6 | no binding |

Biological target: T12, BCMA_B15x Ile22_Ala43
Assay: yeast cell ELISA, sample BCMA_B15x Ile22_Ala43
Procedure: as §1, §2

| Binder | binding result |
| --- | --- |
| B1 | no binding |
| B2 | no binding |
| B3 | no binding |
| B4 | no binding |
| B5 | no binding |
| B6 | no binding |

Biological target: T13, hBCMA fragment Gly6-Tyr40 displayed on …
Assay: yeast cell ELISA, sample BCMA_B11x Gly6_Tyr40
Procedure: as §1, §2

| Binder | OD450 |
| --- | --- |
| B1 | 2.42 |
| B2 | 3.5 |
| B3 | 2.61 |
| B4 | 2.74 |
| B5 | 3.57 |
| B6 | 2.44 |

Biological target: T14, BCMA_B7x Met1_Tyr40
Assay: yeast cell ELISA, sample BCMA_B7x Met1_Tyr40
Procedure: as §1, §2

| Binder | OD450 |
| --- | --- |
| B1 | 1.39 |
| B2 | 3.02 |
| B3 | 2.37 |
| B4 | 1.62 |
| B5 | 2.64 |
| B6 | 1.84 |

— US20250000976A1 (NATIONAL RESEARCH COUNCIL OF CANADA, published 2025)
